Molecular target: alpha v beta 3 integrin on human podocytes (human) (UniProt P06756)
Sequence (P06756 31-1048, chain 1 of 2): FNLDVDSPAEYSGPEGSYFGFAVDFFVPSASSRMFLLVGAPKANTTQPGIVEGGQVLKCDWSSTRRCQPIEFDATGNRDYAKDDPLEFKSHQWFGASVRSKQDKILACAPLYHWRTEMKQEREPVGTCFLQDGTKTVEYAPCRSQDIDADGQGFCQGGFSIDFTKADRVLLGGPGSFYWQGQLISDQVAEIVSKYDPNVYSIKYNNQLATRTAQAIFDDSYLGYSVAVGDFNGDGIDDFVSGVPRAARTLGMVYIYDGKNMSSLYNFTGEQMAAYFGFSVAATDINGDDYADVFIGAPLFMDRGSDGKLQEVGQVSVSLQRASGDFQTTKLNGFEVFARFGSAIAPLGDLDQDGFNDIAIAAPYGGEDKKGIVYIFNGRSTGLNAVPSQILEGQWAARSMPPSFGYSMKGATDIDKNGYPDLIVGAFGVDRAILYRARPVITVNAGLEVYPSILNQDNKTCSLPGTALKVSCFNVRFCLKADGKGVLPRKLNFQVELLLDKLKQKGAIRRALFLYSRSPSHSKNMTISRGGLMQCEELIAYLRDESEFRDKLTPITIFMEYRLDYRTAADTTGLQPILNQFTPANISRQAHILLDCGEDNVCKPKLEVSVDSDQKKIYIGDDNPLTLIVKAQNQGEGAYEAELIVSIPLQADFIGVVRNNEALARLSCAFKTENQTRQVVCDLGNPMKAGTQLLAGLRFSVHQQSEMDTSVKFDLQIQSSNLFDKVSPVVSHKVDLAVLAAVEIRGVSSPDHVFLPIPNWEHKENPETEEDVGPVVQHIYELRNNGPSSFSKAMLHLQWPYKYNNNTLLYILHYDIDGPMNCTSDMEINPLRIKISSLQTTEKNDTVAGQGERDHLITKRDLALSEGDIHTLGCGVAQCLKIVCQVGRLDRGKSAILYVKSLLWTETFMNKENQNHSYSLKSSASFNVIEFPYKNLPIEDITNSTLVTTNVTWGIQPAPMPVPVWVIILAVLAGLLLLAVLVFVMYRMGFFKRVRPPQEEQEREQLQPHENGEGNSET
Sequence (P05106 27-788, chain 2 of 2, further chain): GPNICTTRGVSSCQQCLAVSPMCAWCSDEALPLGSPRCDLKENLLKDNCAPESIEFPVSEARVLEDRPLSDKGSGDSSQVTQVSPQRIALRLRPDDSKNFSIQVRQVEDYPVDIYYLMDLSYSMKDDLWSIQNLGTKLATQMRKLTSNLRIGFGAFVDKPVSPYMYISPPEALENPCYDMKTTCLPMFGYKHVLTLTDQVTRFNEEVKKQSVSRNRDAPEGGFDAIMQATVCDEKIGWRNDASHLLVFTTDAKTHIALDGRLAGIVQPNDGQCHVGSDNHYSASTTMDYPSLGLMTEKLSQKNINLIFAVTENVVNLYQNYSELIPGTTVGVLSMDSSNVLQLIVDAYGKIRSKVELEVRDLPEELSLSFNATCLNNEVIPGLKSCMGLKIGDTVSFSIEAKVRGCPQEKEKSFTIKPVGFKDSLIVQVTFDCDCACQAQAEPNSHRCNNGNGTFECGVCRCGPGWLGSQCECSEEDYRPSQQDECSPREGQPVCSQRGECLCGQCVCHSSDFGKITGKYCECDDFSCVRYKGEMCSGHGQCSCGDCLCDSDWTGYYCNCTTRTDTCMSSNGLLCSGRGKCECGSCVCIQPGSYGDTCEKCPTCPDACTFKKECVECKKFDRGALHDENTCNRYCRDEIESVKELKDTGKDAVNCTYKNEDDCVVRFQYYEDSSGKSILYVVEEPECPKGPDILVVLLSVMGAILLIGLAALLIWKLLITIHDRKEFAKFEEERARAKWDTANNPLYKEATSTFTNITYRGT

EC50 (read off the curve): 2 ng/mL
Substance: human D2D3 protein (C-terminal uPAR fragment, D2D3 protein with Linker) (from UniProt Q03405 100-303) (receptor)

Reference: patent US20250296999A1
